Measured values from the supplement of paper PMC7877785.
± gives the uncertainty stated by the source.

Experiment: self-splicing fitness, log relative to wild type (ln ratio); higher = more splicing; Tetrahymena group I intron in knt gene, E. coli kanamycin selection, DiMSum; sequences stand for … in CUCUCU…GGAGGGAAAAGUUAUCAGGCAUGCACCUGGUAGCUAGUCUUUAAACCAAUAGAUUGCAUCGGUUUAAAAGGCAAGACCGUCAAAUUGCGGGAAAGGGGUCAACAGCCGUUCAGUACCAAGUCUCAGGGGAAACUUUGAGAUGGCCUUGCAAAGGGUAUGGUAAUAAGCUGACGGACAUGGUCCUAACCACGCAGCCAAGUCCUAAGUCAACAGAUCUUCUGUUGAUAUGGAUGCAGUUCACAGACUAAAUGUCGGUCGGGGAAGAUGUAUUCUUCUCAUAAGAUAUAGUCGGACCUCUCCUUAAUGGGAGCUAGCGGAUGAAGUGAUGCAACACUGGAGCCGCUGGGAACUAAUUUGUAUGCGAAAGUAUAUUGAUUAGUUUUGGAGUACUCGUGGUCG
Outline: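 Pooled colonies went to amplicon sequencing on an Illumina HiSeq 2500 after six replicate transformations. The plates were LB agar with 100 μg/mL carbenicillin, 50 μM IPTG and 0.2% rhamnose, with or without 25 μg/mL kanamycin, incubated overnight at 37°C or 30°C. The E. coli BL21(DE3) library had all eight P1ex-region intron nucleotides randomised, the intron placed in the knt kanamycin-resistance gene on pET-22b(+). DiMSum fitness is the error-weighted combination of replicate fold changes, kanamycin against none, normalised to wild type.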

Sequence	self-splicing fitness (ln) (30 °C)	self-splicing fitness (ln) (37 °C)
GGGAAGCAAUAUUACGUAAA	-1.53 ± 0.21	-1.56 ± 0.3
AUCCAGCAAUAUUACGCGUG	-2.3 ± 0.11	-1.72 ± 0.11
CGUUAGCAAUAUUACGAACU	-0.929 ± 0.075	0.785 ± 0.11
UCUAAGCAAUAUUACGGAGC	–	-1.68 ± 0.37
UUUCAGCAAUAUUACGAAGC	-0.935 ± 0.36	–
GCAUAGCAAUAUUACGUAGA	-2.41 ± 0.16	-0.999 ± 0.17
AACAAGCAAUAUUACGUUGC	-2.83 ± 0.18	-3.21 ± 0.32
GCACAGCAAUAUUACGAUAC	-1.21 ± 0.074	-0.488 ± 0.084
UCAGAGCAAUAUUACGGGAC	-3.74 ± 0.29	-1.6 ± 0.33
UAUCAGCAAUAUUACGUAUA	-0.696 ± 0.088	-0.258 ± 0.1
AGGCAGCAAUAUUACGACCG	0.153 ± 0.071	0.0303 ± 0.085
GCAGAGCAAUAUUACGAGUG	-4.02 ± 0.48	-2.25 ± 0.26
GGGCAGCAAUAUUACGGCAA	-0.705 ± 0.14	-0.742 ± 0.17
AUGCAGCAAUAUUACGAAAC	-2.82 ± 0.46	-0.989 ± 0.27
CGCUAGCAAUAUUACGUGAU	-2.34 ± 0.12	-3.44 ± 0.25
AACGAGCAAUAUUACGUUAA	-3.45 ± 0.36	-2.2 ± 0.24
UCGUAGCAAUAUUACGCUGG	-3.09 ± 0.15	-1.88 ± 0.15
CAACAGCAAUAUUACGGAUA	-3.38 ± 0.17	-2.14 ± 0.15
ACGAAGCAAUAUUACGCGAA	-2.07 ± 0.1	-0.608 ± 0.097
GGGCAGCAAUAUUACGAUCG	-0.913 ± 0.098	0.377 ± 0.15
CUGCAGCAAUAUUACGGACG	-0.355 ± 0.14	0.179 ± 0.15
AAUAAGCAAUAUUACGGAGG	-3.19 ± 0.18	-1.93 ± 0.2
GUUGAGCAAUAUUACGGAUC	-1.91 ± 0.14	-1.16 ± 0.14
AAGGAGCAAUAUUACGACCU	-0.0623 ± 0.16	-0.475 ± 0.2
CCGAAGCAAUAUUACGAUUU	-1.44 ± 0.16	-2.58 ± 0.24

Sequence	self-splicing fitness (ln) (30 °C)	self-splicing fitness (ln) (37 °C)
AAUCAGCAAUAUUACGCCUC	-1.12 ± 0.13	-0.226 ± 0.17
CGGCAGCAAUAUUACGUGGA	-2.73 ± 0.26	-1.72 ± 0.27
UAUCAGCAAUAUUACGCGCA	-0.571 ± 0.091	0.506 ± 0.11
GGACAGCAAUAUUACGGCGG	-2.64 ± 0.13	-1.52 ± 0.13
CUCGAGCAAUAUUACGAAGU	-3.64 ± 0.43	-1.84 ± 0.35
ACUGAGCAAUAUUACGUGCU	-3.84 ± 0.41	-2.28 ± 0.27
AGCGAGCAAUAUUACGGGCA	-0.63 ± 0.061	-0.562 ± 0.075
GCGCAGCAAUAUUACGCACA	-1.5 ± 0.12	-0.062 ± 0.11
UUUAAGCAAUAUUACGGCAG	-0.39 ± 0.098	0.179 ± 0.15
GUCAAGCAAUAUUACGGCUU	-4.12 ± 0.35	-2.74 ± 0.31
GUUUAGCAAUAUUACGCCAU	-1.68 ± 0.4	–
GCAGAGCAAUAUUACGGAUC	-2.59 ± 0.34	-1.6 ± 0.29
UUACAGCAAUAUUACGGCUA	-0.676 ± 0.091	0.443 ± 0.11
GCAUAGCAAUAUUACGGCAC	-1.15 ± 0.14	-0.425 ± 0.15
AUCGAGCAAUAUUACGGCCA	-1.35 ± 0.41	-1.47 ± 0.37
CUCUAGCAAUAUUACGUCGG	-3.22 ± 0.22	-1.57 ± 0.18
UGGGAGCAAUAUUACGCACG	-3.26 ± 0.37	–
GCAUAGCAAUAUUACGCCUG	-1.22 ± 0.081	-1.49 ± 0.1
GUAAAGCAAUAUUACGUCCU	0.164 ± 0.11	0.663 ± 0.16
AUUCAGCAAUAUUACGUACU	0.26 ± 0.079	-0.011 ± 0.095
UGUAAGCAAUAUUACGUUGU	-3.79 ± 0.21	-2.98 ± 0.29
CACAAGCAAUAUUACGCGCG	-0.772 ± 0.066	-0.607 ± 0.071
ACCGAGCAAUAUUACGAAGU	-1.93 ± 0.16	-1.68 ± 0.22
AACCAGCAAUAUUACGCUGU	-3.49 ± 0.15	-1.4 ± 0.095
CUUUAGCAAUAUUACGCUAG	-3.45 ± 0.31	-2.11 ± 0.27

Sequence	self-splicing fitness (ln) (30 °C)	self-splicing fitness (ln) (37 °C)
ACACAGCAAUAUUACGCUAC	-3.73 ± 0.35	-2.63 ± 0.26
UUUGAGCAAUAUUACGGGUC	–	-3.77 ± 0.46
UACUAGCAAUAUUACGUAUU	-4.56 ± 0.29	-2.24 ± 0.15
AUGGAGCAAUAUUACGGCUA	-0.572 ± 0.23	-0.853 ± 0.26
GCUUAGCAAUAUUACGAUGA	-0.547 ± 0.12	-0.556 ± 0.12
UCAGAGCAAUAUUACGAUUA	-1.18 ± 0.28	–
GCGUAGCAAUAUUACGCGGC	-2.64 ± 0.27	-2.08 ± 0.46
CUAAAGCAAUAUUACGGGCG	-0.0163 ± 0.069	-0.208 ± 0.081
GUAUAGCAAUAUUACGACUA	-0.438 ± 0.21	0.00698 ± 0.23
CAGAAGCAAUAUUACGGACA	-1.93 ± 0.16	-0.876 ± 0.13
ACUCAGCAAUAUUACGUCGG	-1.74 ± 0.07	-1.25 ± 0.084
UCGGAGCAAUAUUACGGCCC	–	-2.31 ± 0.45
ACGUAGCAAUAUUACGAGCA	-0.664 ± 0.2	-1.82 ± 0.19
CUGAAGCAAUAUUACGUGCC	–	-1.64 ± 0.49
AGGAAGCAAUAUUACGUUUC	-3.65 ± 0.33	-1.86 ± 0.36
GCCCAGCAAUAUUACGCAAG	-2.79 ± 0.093	-2.46 ± 0.14
UAUGAGCAAUAUUACGGCUA	-0.67 ± 0.14	-1.16 ± 0.16
AGGUAGCAAUAUUACGCCGA	-0.983 ± 0.019	-0.334 ± 0.034
AAUUAGCAAUAUUACGCCUA	0.234 ± 0.13	0.297 ± 0.15
GUAGAGCAAUAUUACGUUGA	-2.98 ± 0.2	-0.879 ± 0.17
UUGCAGCAAUAUUACGGUGA	-1.44 ± 0.14	0.0799 ± 0.14
CUUCAGCAAUAUUACGGAAA	-1.17 ± 0.18	-1.16 ± 0.15
CAAGAGCAAUAUUACGGCCG	-0.899 ± 0.13	-0.536 ± 0.17
UUGUAGCAAUAUUACGUCAC	-2.56 ± 0.39	–
UAAUAGCAAUAUUACGUGGU	-4.96 ± 0.28	-2.75 ± 0.15

Sequence	self-splicing fitness (ln) (30 °C)	self-splicing fitness (ln) (37 °C)
UGGAAGCAAUAUUACGAGUG	-1.38 ± 0.09	-0.586 ± 0.12
CAACAGCAAUAUUACGAAAC	-3.87 ± 0.2	-2.01 ± 0.17
UAUUAGCAAUAUUACGACAA	-0.602 ± 0.17	-0.127 ± 0.24
UUUUAGCAAUAUUACGUCUU	-2.43 ± 0.18	-1.33 ± 0.19
GUAAAGCAAUAUUACGAAGU	-1.47 ± 0.077	-0.327 ± 0.098
UCCUAGCAAUAUUACGGACG	-3.92 ± 0.4	-2.47 ± 0.39
ACUGAGCAAUAUUACGUGAG	-1.82 ± 0.063	-1.36 ± 0.085
UCGGAGCAAUAUUACGGGUA	–	-1.76 ± 0.45
UCGAAGCAAUAUUACGUUCA	-2.59 ± 0.26	-1.18 ± 0.17
UUCUAGCAAUAUUACGAUUA	-0.696 ± 0.14	0.682 ± 0.12
CCUGAGCAAUAUUACGGUUU	-3.26 ± 0.2	-2.38 ± 0.19
ACCCAGCAAUAUUACGUGUU	-1.45 ± 0.047	-0.111 ± 0.061
CGGCAGCAAUAUUACGAUAG	-0.0988 ± 0.079	-0.126 ± 0.086
CCGUAGCAAUAUUACGUGAU	-3.04 ± 0.14	-2.43 ± 0.18
AUUCAGCAAUAUUACGGCGC	-0.389 ± 0.099	-0.346 ± 0.13
ACCGAGCAAUAUUACGUCCA	–	-0.553 ± 0.21
CUUCAGCAAUAUUACGCUAU	-3.33 ± 0.37	-1.99 ± 0.25
ACGGAGCAAUAUUACGUAUG	-3.6 ± 0.2	-2.81 ± 0.32
UAGUAGCAAUAUUACGCAGU	-2.65 ± 0.21	-1.02 ± 0.14
GCGGAGCAAUAUUACGACCU	-0.927 ± 0.2	-1.02 ± 0.19
UCAGAGCAAUAUUACGUUCC	-3.84 ± 0.47	-2.57 ± 0.49
UUAAAGCAAUAUUACGAUCC	-1.64 ± 0.18	-0.49 ± 0.24
UUUCAGCAAUAUUACGCGGU	-3.46 ± 0.25	-1.92 ± 0.2
